From the supplement of paper PMC9170038

Test system: MS2 coat protein
Assay: apparent KD of MS2 coat protein; designed switch direction (-1 OFF switch, 1 ON switch): -1; higher = weaker reporter binding
How it was run: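 Normalised cluster fluorescence was curve-fitted, and each design's median over clusters is its apparent KD. Before this, SNAP-549-labelled MS2 coat protein was titrated from 0.7 or 1.5 nM, doubling to 3 µM, over RNA switches transcribed on Illumina chips by stalled E. coli RNA polymerase. Titrations had no input, 200 uM small-molecule ligand, or an oligonucleotide input, and steps lasted 0.8–1.5 h (lowest) to 10–20 min (highest).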

[1] = input ligand: microRNA oligo, concentration not stated
[2] = Eterna round: R95, input ligand: FMN 200 uM
[3] = Eterna round: R95, input ligand: microRNA oligo, concentration not stated
[4] = Eterna round: R95, input ligand: none

Sequence | apparent KD of MS2 coat protein (input ligand: FMN 200 uM) [nM] | apparent KD of MS2 coat protein [1] [nM] | apparent KD of MS2 coat protein (input ligand: none) [nM] | apparent KD of MS2 coat protein [2] [nM] | apparent KD of MS2 coat protein [3] [nM] | apparent KD of MS2 coat protein [4] [nM]
GGAUAAAGUCGAGGAUAUACGCACCACUAACGAGUAGAAGGCGAACAUGAGGAUCACCCAUGUGAGUUCUCAAUAAGAAACACG [Prohibition 69 - Jieux - Exclusion NG 1] (Eterna round: R96, puzzle: Exclusion NG 1) | 54.1 | 26.1 | 37.1 |  |  | 
GGGCUGGGAGGAUAUUCGUUUGGAGACAUGAGGAUCACCCAUGUGAUGCGAGGGAAGUCCGGAGAAGGCUCGGUUC [-24.8, -21.2 kcal, 22% A] (Eterna round: R97, puzzle: Exclusion 5) | 24 |  | 15.9 |  |  | 
UUCCCACAUGAGGAUCACCCAUGUGAGGAUAUGGGCGGCGCCGCAAAAGCGGCGCCGCCCAGAAGGCGCAUGAU [Malcxlusion 8 - Jieux - Exclusion 1] (Eterna round: R97, puzzle: Exclusion 1) | 21.6 |  | 18.4 |  |  | 
AACUAGUCAGGAUAUACGAACAUGUCAAAAAACAUAAAGGGACAUGAGGAUCACCCAUGUAGAAGGGACUAGCA [74%, Web mod - With 4 less G's] (Eterna round: R96, puzzle: Exclusion 2) |  | 150 |  |  |  | 
GUGGUAGGUUUUUCGAGUAACAUGAGGAUCACCCAUGUAUUAGUUGGAUGUAUCAAGCUUUUUGCUCGACUUAUAAA [JR_SV3TOV1_Sub043] (puzzle: Sensor v3, turn-off variant 1) |  |  |  | 249 | 40.6 | 288
CAGUACUACAAGCUUGGGAACAUGAGGAUCACCCAUGUUCGUCUUAUUGAUCUAGGUACGCUGACGUACCUAGAUCU [JL-sv1-2.17 Brourd mod] (puzzle: Sensor v3, turn-off variant 1) |  |  |  | 16.5 | 27.1 | 14.7
UCCGAACAUGAGGAUCACCCAUGUCAGGAUAUUCGGUUACGUGACAAAUAGUACUAACGAAGAAGGGACAUGCU [Eternabot (L2) Solution 26] (Eterna round: R97, puzzle: Exclusion 1) | 79.1 |  | 27.7 |  |  | 
UCGAUGUGAGGAUAUAUAUGCAGUAGUCCUUGUGUUUUAUAACUUGAGGAUCACCCAAGUAGAAGGCGCGACGU [JR_Ex2_Sub059] (Eterna round: R97, puzzle: Exclusion 2) | 37 |  | 33.5 |  |  | 
AGAAAUGCCCAUGGCCACAAGCUUUUUGCUUGUCUUACUACAUGAGGAUCACCCAUGUAACAUGGGCUCCUGACAAA [Soarriat] (puzzle: Sensor v3, turn-off variant 2) |  |  |  | 12.9 | 9.12 | 10.9
AGCAUGCUAGGAUAUACGAAACAUUAGGGUUCUUUGUAUAAACAUGAGGAUCACCCAUGUAGAAGGAGCGUGCA [Mat - Exclusion 2 - Mod of Hyphema - D97] (puzzle: Exclusion 2) |  |  |  |  | 40.9 | 
GUCUCACAUGAGGAUCACCCAUGUGAGGAUAUACUGGGCAUUCUGGUGGCAGGUGGGCGUAGAAGGCACGUGGG [Eternabot (L1) Solution 82] (Eterna round: R97, puzzle: Exclusion 1) | 33.8 |  | 19.4 |  |  | 
GACAGUUCGGAGGAUAUCCAGAACUAAGAACAAGGAGAAGGCCGAACAUGAGGAUCACCCAUGUGUGUUCCCAU [Isdiorzaar] (puzzle: Exclusion 6) |  |  |  | 19.4 | 30.7 | 27
UUUAAUGGAAUUAAGAUCACAUGAGGAUCACCCAUGUAUAUAUAGGAUAUCAGCUCGUGUAGAGCUGAGAAGGAUAUAUACAUA [ExNG3/6-B3] (Eterna round: R96, puzzle: Exclusion NG 3) | 208 | 344 | 185 |  |  | 
AUGUUAUUCUGAGGAUAUUGUUUAAUCCUCUCACAUGAGGAUCACCCAUGUUUCCGUGUUUACCGCAAGAAGGCAGUUUUGUUU [JR_ExcNG2_Sub026] (Eterna round: R96, puzzle: Exclusion NG 2) | 63.6 | 48.7 | 61.8 |  |  | 
GAUAGAGAGCAGGAUAUCUUGGGUAAGUAUCAUAGAGAAGGGCUCACAUGAGGAUCACCCAUGUGGUCCAAGAU [Dibira] (puzzle: Exclusion 6) |  |  |  | 42.8 | 13 | 12.6
GGCACACAUGAGGAUCACCCAUGUGAGGAUAUUAGGCGAUCGUCGAUAGACGAUAGCCUGAGAAGGCACAUGCC [Mat - Exclusion 1 - Eli Mod - D12] (Eterna round: R97, puzzle: Exclusion 1) | 76.9 |  | 20.6 |  |  | 
UAAGCUCUGUCAGGAUAUCCCUGUAAACGCAACGGAGAAGGGACAUGAGGAUCACCCAUGUGCGGGCCCAACGCGCUUGGGUCC [Gelaisve] (Eterna round: R96, puzzle: Exclusion NG 1) | 56.6 | 20.6 | 26.3 |  |  | 

Sequence | apparent KD of MS2 coat protein (input ligand: FMN 200 uM) [nM] | apparent KD of MS2 coat protein [1] [nM] | apparent KD of MS2 coat protein (input ligand: none) [nM] | apparent KD of MS2 coat protein [2] [nM] | apparent KD of MS2 coat protein [3] [nM] | apparent KD of MS2 coat protein [4] [nM]
GACCAGGUAGGAUAUGCUGGGUCGGACUUGAGGAUCACCCAAGUGGCCAAAGUGCGUCCCGCAGAAGGGCCGAAAA [Inanorxeti] (Eterna round: R97, puzzle: Exclusion 5) | 81.6 |  | 827 |  |  | 
GUCUUAAGUUAAACCGAUUACAUGAGGAUCACCCAUGUGAACAUGACAGUCCGCAUGAGGAGUUUCUUGCUCGUCAU [Eternabot (L1) Solution 28] (Eterna round: R97, puzzle: Sensor, turn-off variant 1) | 49.6 |  | 46.8 |  |  | 
UGCAGACGAGGAUAUAGAUUUGAUAACAUGAGGAUCACCCAUGUGAUCGAUAGAUCAGAUUUAGAAGGCGUCUGCA [E5/8-A2] (Eterna round: R97, puzzle: Exclusion 5) | 628 |  | 529 |  |  | 
AGUACUAUCACGAAAGUGAUAGUACAAAAUAACAAGUGAACAUGAGGAUCACCCAUGUCCUCAUUUGCUCGUCUUAU [Sensor 3 - 18] (puzzle: Sensor v3, turn-off variant 2) |  |  |  | 418 | 925 | 421
UUGCGGCAAGGAUAUACAUGAGGAUCACCCAUGUAGUAUUUGGUGCUGGCGAGCUGGUGUAGAAGGUGCACGCA [EX3 B.3] (Eterna round: R97, puzzle: Exclusion 3) | 21.2 |  | 16.1 |  |  | 
AAAAGGUGAGGAUAUUCAAGGAAAGACAUGAGGAUCACCCAUGUAAGAAAGGAAAAGGGAGGAGAAGGUGUGAAAA [salish99_ex5_r4_136] (Eterna round: R97, puzzle: Exclusion 5) | 62.1 |  | 60.2 |  |  | 
CAAUAUUACUGAGGAUAUCCUAUUGUAUUUCAGGGAGAAGGCAGACUCAACAUGAGGAUCACCCAUGUAAGACGGGUACUAGAU [Ex NG1 #18] (Eterna round: R96, puzzle: Exclusion NG 1) | 97 | 77.4 | 98.2 |  |  | 
UCAUGGGAGGCAGCUGCCCACAUGAGGAUCACCCAUGUUUUAGACAAACGGGUACAAGCUUUUAAUGCUCUUCUUUG [Eternabot (L2) Solution 49] (Eterna round: R97, puzzle: Sensor, turn-off variant 1) | 587 |  | 248 |  |  | 
CACCUGAAUACAGGAUAUCCUACAUGAGGAUCACCCAUGUAAUAAAUGAGAAUUUCGAAUGUAAUGGAGAAGGGUAGAUAAGGC [Ostracism 88 - Jieux - Exclusion NG 2] (Eterna round: R96, puzzle: Exclusion NG 2) | 125 | 82.8 | 86.6 |  |  | 
UCCUCACUUGAGGAUCACCCAAGUCAGGAUAUUCACUGAACUGCGUAACAGUUCGGCCGAAGAAGGGAUUCGGG [Veatorma] (Eterna round: R97, puzzle: Exclusion 1) | 259 |  | 75 |  |  | 
CUCAUGUCAGGAUAUCAGGCAGGAAGCUGCCAAAAGUGGGAUGAGAAGGGACAUGAGGAUCACCCAUGUAAAUA [Mazasoti] (Eterna round: R97, puzzle: Exclusion 4) | 355 |  | 218 |  |  | 
CCGUGGCAAGGAUAUACAUAGGAGAGGAAGGCAAGAGGAGGACAUGAGGAUCACCCAUGUAGAAGGUGCAGAUC [JR_Exclu2_Sub028] (puzzle: Exclusion 2) |  |  |  |  | 71.7 | 
ACUUAUUGAGGAUAUACAUUAAUUUACAUGAGGAUCACCCAUGUUCUUCAAUGUAUAUAUGUAGAAGGCAGAAGAA [JL-ex5-4.30 Malcolm mod] (Eterna round: R97, puzzle: Exclusion 5) | 29.3 |  | 14 |  |  | 
AAUAACAAGCAAGAUCCUAACAUGAGGAUCACCCAUGUGCUCGUCUUAUAAAGUACUAUCACGAAAGUGAUAGUACA [Sensor 3, v1 - 45] (puzzle: Sensor v3, turn-off variant 1) |  |  |  | 470 | 306 | 420
AAUUCACAUGAGGAUCACCCAUGUCAGGAUAUGGUUUCACUUUUUUCUUUUCUUGAUUCCAGAAGGGACAGCUA (puzzle: Exclusion 1) |  |  |  |  | 62.6 | 
ACAACAAGCUUUUUGAACGUAGAACAUGAAGCUCUAGUCACAUGAGGAUCACCCAUGUCAGCCAGUUAGAUAGGUGA [JR_SV3TOV2_Sub065] (puzzle: Sensor v3, turn-off variant 2) |  |  |  | 64.5 | 49 | 51.2
CCCAUGUCAGGAUAUUAAUUGAGCAGGAAGCCCUGUCCACUUGAGAAGGGACAUGAGGAUCACCCAUGUAAAAC [Radiaena] (Eterna round: R97, puzzle: Exclusion 4) | 138 |  | 417 |  |  | 
